This passage reports % Inhibition (primary neuron assay) and LB Discrimination Index results from patent US20230025707A1.

Assay [1] has as its target human α-Synuclein pre-formed fibrils (human) (UniProt P37840). Put plainly: cell-based or functional assay.
The target of assay [2] is Lewy body α-Synuclein (human) (UniProt P37840). Description: IHC, human amygdala; OD of Lewy bodies / OD of tissue.

Consider IgG (antibody), for which the % Inhibition (primary neuron assay) in assay [1] is 0%. For Syn303 (antibody), the LB Discrimination Index in assay [2] is 2.1. In the case of Syn211 (antibody), in assay [1], the % Inhibition (primary neuron assay) was 94.7%.
